Consider 1 molecule from patent publication US20160304625A1 (WELT BIO MOLECULAR PHARMACEUTICAL, published 2016).

The target in test [1] is human membrane bound IgM with kappa light chain (mIgM-kappa) (human, UniProt P01871 1-474). Put plainly: cell-based or functional assay.
Test [2] addresses T1, mIgG proximal domain peptide ELQLEESCAEAQDGELDG (human).
T1 construct: also called mIgG-PD; 18-mer mIgG
T1 peptide: ELQLEESCAEAQDGELDG
In words: competition ELISA, block 'Blocked by mAb 1', mIgG-PD. Background: ELISA stands for enzyme-linked immunosorbent assay.

Chain of human membrane bound IgM with kappa light chain (mIgM-kappa) (P01871 whole entry, the tested form may be a part): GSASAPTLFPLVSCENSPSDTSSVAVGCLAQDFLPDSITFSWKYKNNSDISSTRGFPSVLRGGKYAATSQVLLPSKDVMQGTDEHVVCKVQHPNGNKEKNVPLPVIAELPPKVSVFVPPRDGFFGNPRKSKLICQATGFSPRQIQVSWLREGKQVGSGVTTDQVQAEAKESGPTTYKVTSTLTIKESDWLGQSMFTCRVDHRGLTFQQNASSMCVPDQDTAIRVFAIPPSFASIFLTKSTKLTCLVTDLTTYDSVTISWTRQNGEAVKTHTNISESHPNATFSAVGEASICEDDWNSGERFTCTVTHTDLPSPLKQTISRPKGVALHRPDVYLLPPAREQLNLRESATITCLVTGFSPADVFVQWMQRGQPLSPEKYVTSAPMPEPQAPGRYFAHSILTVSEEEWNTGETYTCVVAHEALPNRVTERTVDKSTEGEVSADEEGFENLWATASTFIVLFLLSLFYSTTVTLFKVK

B1: monoclonal antibody mAb4-2b (antibody, mouse IgG1, V domains shown)
VH: EVQLEESGAELVKPGASLKLSCKASGYTFTSYWMNWVKQRPGQGLEWIGIIHPNSGSTNYNEKFKTKATLTVDKSSSTAYMQLSSLTSEDSAVYYCARTRGNYGMDYWGQGTSVTVSS
VL: DIVMTQSHKFMSTSVGDRVSITCKASQDVSTAVAWYQQKPGQSPTLLIYSASYRNTGVPDRFTGSGSGTDFTFTISSVQAEDLAVYYCQQHFSIPPLTFGAGTKLELKR
In the case of B1, the “clonogenic capacity of CA 46” value in test [1] amounted to 100 fold. Further, the binding result in test [2] was “no binding”.
